US20210246166A1 (Bayer, published 2021)
Each block holds one binder with its values, some of them ahead of it. Numbered stars: 1 amine (or outer) side, 2 acyl side, 3 side chain; on linkers, the order of the positions; unused ones are H or OH. Bridge positions count the residues as written; N and C are the ends. Square brackets hold non-standard residues; d marks the D form. Ends that are not written are not given here. Phe(2,3-F2) = (2S)-3-(2,3-difluorophenyl)-2-aminopropanoic acid, O=C([C@H](Cc1cccc(F)c1F)N[*:1])[*:2]; Ida = iminodiacetic acid, O=C(CN(CC(=O)[*:3])[*:1])[*:2]; His(τ-Bzl) = N[C@@H](Cc1cn(Cc2ccccc2)cn1)C(=O)O; Oic = O=C(O)[C@@H]1C[C@@H]2CCCC[C@@H]2N1; tBuAla = CC(C)(C)C[C@H](N)C(=O)O; (3-Me)H = L-3-methylhistidine; Pen = CC(C)(S)[C@H](N)C(=O)O; NMeC = CN[C@@H](CS)C(=O)O; NMeA = CN[C@@H](C)C(=O)O; Nva = CCC[C@H](N)C(=O)O; Sar = CNCC(=O)O

Assays:
Assay in all cases: cell-based or functional assay
[1] = molecular target: T1, recombinant human MASP1 active protease (amino acids 297-699, C-terminal His Tag) (human, UniProt P48740 297-699)
T1 sequence: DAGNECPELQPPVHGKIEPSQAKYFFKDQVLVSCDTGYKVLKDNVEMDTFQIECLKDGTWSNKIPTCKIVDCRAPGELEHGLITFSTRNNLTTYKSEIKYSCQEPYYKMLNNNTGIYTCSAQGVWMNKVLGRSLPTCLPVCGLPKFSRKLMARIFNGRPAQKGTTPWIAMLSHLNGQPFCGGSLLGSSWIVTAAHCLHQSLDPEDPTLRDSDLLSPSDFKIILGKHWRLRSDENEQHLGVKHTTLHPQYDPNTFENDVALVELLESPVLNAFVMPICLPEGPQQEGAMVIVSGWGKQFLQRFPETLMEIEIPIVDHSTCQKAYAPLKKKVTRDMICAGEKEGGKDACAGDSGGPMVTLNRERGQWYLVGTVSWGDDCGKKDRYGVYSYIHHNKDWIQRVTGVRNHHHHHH

[2] = molecular target: recombinant human MASP2 active protease (amino acids 297-686, C-terminal His Tag) (human, UniProt O00187 297-686)
Target sequence in this assay (O00187 other isoform, or with tags, fused parts or gaps limits assumed): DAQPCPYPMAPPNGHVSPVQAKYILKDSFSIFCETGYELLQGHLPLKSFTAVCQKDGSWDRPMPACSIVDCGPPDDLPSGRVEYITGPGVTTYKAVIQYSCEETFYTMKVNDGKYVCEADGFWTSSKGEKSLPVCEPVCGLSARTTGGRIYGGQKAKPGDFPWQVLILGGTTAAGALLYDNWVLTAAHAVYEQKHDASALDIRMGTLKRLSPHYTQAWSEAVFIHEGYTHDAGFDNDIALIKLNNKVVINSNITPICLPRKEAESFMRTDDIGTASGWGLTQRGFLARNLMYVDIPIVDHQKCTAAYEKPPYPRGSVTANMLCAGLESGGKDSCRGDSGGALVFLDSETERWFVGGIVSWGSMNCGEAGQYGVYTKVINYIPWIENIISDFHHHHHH

[3] = molecular target: T2, recombinant human MASP1 active protease (amino acids 297-699, C-terminal His Tag) (human, UniProt P48740 297-699); remark: listed apart in the source
T2 sequence: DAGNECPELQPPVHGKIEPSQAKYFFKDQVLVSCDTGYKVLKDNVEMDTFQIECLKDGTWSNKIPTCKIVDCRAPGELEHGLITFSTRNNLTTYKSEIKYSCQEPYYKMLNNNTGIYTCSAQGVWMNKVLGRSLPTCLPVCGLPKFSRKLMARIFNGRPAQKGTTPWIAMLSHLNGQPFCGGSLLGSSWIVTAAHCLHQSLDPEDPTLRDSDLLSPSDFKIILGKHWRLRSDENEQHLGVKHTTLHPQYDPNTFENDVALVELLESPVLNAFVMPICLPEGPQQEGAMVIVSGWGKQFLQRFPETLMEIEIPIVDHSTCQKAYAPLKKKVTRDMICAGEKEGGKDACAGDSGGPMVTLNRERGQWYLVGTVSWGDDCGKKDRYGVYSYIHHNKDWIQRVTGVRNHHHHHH

[4] = molecular target: recombinant human MASP2 active protease (amino acids 297-686, C-terminal His Tag) (human, UniProt O00187 297-686); remark: listed apart in the source
Target sequence in this assay (O00187 other isoform, or with tags, fused parts or gaps limits assumed): as the sequence (O00187 other isoform, or with tags, fused parts or gaps limits assumed) above

human MASP1 IC50 [3]: 2.8 nM
human MASP2 IC50 [4]: 61 nM
B4: Example 444: ((3-Me)H)-IC+SRSLP-(Oic)-I-(Pen)+IP-NH2 (peptide)
peptide: [(3-Me)H]ICSRSLP[Oic]I[Pen]IP-NH2
modifications: disulfide 3-11

human MASP1 IC50 [3]: 4.7 nM
human MASP2 IC50 [4]: 65.5 nM
B7: Example 447: ((N-Me)G)-IC+SRS-((tBu)A)-PPI-(Pen)+IP-((1-Bn)H)-OH (peptide)
peptide: [Sar]ICSRS[tBuAla]PPI[Pen]IP[His(τ-Bzl)]-OH
modifications: disulfide 3-11; N-terminus assumed
SMILES: CC[C@H](C)[C@H](NC(=O)CNC)C(=O)N[C@H]1CSSC(C)(C)[C@@H](C(=O)N[C@H](C(=O)N2CCC[C@H]2C(=O)N[C@@H](Cc2cn(Cc3ccccc3)cn2)C(=O)O)[C@@H](C)CC)NC(=O)[C@H]([C@@H](C)CC)NC(=O)[C@@H]2CCCN2C(=O)[C@@H]2CCCN2C(=O)[C@H](CC(C)(C)C)NC(=O)[C@H](CO)NC(=O)[C@H](CCCNC(=N)N)NC(=O)[C@H](CO)NC1=O

human MASP1 IC50 [3]: 440 nM
human MASP2 IC50 [4]: 1000 nM
B8: Example 448: ((N-Me)G)-IC+RRS-((tBu)A)-PP-(Nva)-(Pen)+IP-NH2 (peptide)
peptide: [Sar]ICRRS[tBuAla]PP[Nva][Pen]IP-NH2
modifications: disulfide 3-11; N-terminus assumed
SMILES: CCC[C@@H]1NC(=O)[C@@H]2CCCN2C(=O)[C@@H]2CCCN2C(=O)[C@H](CC(C)(C)C)NC(=O)[C@H](CO)NC(=O)[C@H](CCCNC(=N)N)NC(=O)[C@H](CCCNC(=N)N)NC(=O)[C@@H](NC(=O)[C@@H](NC(=O)CNC)[C@@H](C)CC)CSSC(C)(C)[C@@H](C(=O)N[C@H](C(=O)N2CCC[C@H]2C(N)=O)[C@@H](C)CC)NC1=O

Continued, binder first:

B1: AIC+SRS-((tBu)A)-PPI-((N-Me)C)+IPD-NH2 (peptide)
peptide: AICSRS[tBuAla]PPI[NMeC]IPD-NH2
modifications: disulfide 3-11; N-terminus assumed
SMILES: CC[C@H](C)[C@H](NC(=O)[C@H](C)N)C(=O)N[C@H]1CSSC[C@@H](C(=O)N[C@H](C(=O)N2CCC[C@H]2C(=O)N[C@@H](CC(=O)O)C(N)=O)[C@@H](C)CC)N(C)C(=O)[C@H]([C@@H](C)CC)NC(=O)[C@@H]2CCCN2C(=O)[C@@H]2CCCN2C(=O)[C@H](CC(C)(C)C)NC(=O)[C@H](CO)NC(=O)[C@H](CCCNC(=N)N)NC(=O)[C@H](CO)NC1=O
human MASP1 IC50 [1]: 1.95 nM
human MASP2 IC50 [2]: 225 nM

B2: Example 441: ((N-Me)G)-IC+SRS-((2S)-3-(2,3-difluorophenyl)-2-aminopropanoic acid)-P-(Oic)-I-(Pen)+IP-NH2 (peptide)
peptide: [Sar]ICSRS[Phe(2,3-F2)]P[Oic]I[Pen]IP-NH2
modifications: disulfide 3-11; N-terminus assumed
SMILES: CC[C@H](C)[C@H](NC(=O)CNC)C(=O)N[C@H]1CSSC(C)(C)[C@@H](C(=O)N[C@H](C(=O)N2CCC[C@H]2C(N)=O)[C@@H](C)CC)NC(=O)[C@H]([C@@H](C)CC)NC(=O)[C@@H]2C[C@@H]3CCCC[C@@H]3N2C(=O)[C@@H]2CCCN2C(=O)[C@H](Cc2cccc(F)c2F)NC(=O)[C@H](CO)NC(=O)[C@H](CCCNC(=N)N)NC(=O)[C@H](CO)NC1=O
human MASP1 IC50 [3]: 65 nM
human MASP2 IC50 [4]: 220 nM

B3: Example 443: ((N-Me)A)-IC+SRS-((tBu)A)-P-((3R,6R)-1,1-Difluoro-5-azaspiro[2.4]heptane-6-carboxylic acid (enantiomer 1))-I-(Pen)+IP-NH2 (peptide)
peptide: [NMeA]ICSRS[tBuAla]P[(3R,6R)‑1,1‑Difluoro‑5‑azaspiro(2.4)heptane‑6‑carboxylic acid (enantiomer 1)]I[Pen]IP-NH2
modifications: disulfide 3-11
human MASP1 IC50 [3]: 0.78 nM
human MASP2 IC50 [4]: 74 nM

B5: Example 445: ((N-Me)A)-IC+SRS-((tBu)A)-P-((3R,6R)-1,1-Difluoro-5-azaspiro[2.4]heptane-6-carboxylic acid (enantiomer 2))-I-(Pen)+IP-NH2 (peptide)
peptide: [NMeA]ICSRS[tBuAla]P[(3R,6R)‑1,1‑Difluoro‑5‑azaspiro(2.4)heptane‑6‑carboxylic acid (enantiomer 2)]I[Pen]IP-NH2
modifications: disulfide 3-11
human MASP1 IC50 [3]: 3 nM
human MASP2 IC50 [4]: 300 nM

B6: Example 446: ((N-Me)G)-IC+SRSLP-(Oic)-I-(Pen)+IP-(Ida)-OH (peptide)
peptide: [Sar]ICSRSLP[Oic]I[Pen]IP[Ida]-OH
modifications: disulfide 3-11
human MASP1 IC50 [3]: 2.7 nM
human MASP2 IC50 [4]: 72 nM
